Results: US20200181247A1

Molecular target: commercially-prepared stable A-beta42 Oligomers (SynAging SAS) (human)
Assay: SPR; antibody covalently immobilized, stable A-beta42 oligomers (1 microM) injected

Sequence of commercially-prepared stable A-beta42 Oligomers (SynAging SAS) (human) (peptide, as listed by the source): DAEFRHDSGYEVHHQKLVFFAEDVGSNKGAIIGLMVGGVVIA

Q: Which binding response units (BRUs), mean does the source give for negative control IgG1 (antibody) here?
A: The binding response units (BRUs), mean was 2.5 BRU.
